In the test the target is exonuclease domain from the DNA repair protein WRN. The experiment in a line: SEC-MALS; protein concentrated (10x and 20x) in a mixture of 50 mM phosphate and 1% sucrose; A280 and MALS across the elution peak. A general note: SEC sorts molecules by how far they enter the pores of the column.

Sequence of exonuclease domain from the DNA repair protein WRN (Q14191 2-1432): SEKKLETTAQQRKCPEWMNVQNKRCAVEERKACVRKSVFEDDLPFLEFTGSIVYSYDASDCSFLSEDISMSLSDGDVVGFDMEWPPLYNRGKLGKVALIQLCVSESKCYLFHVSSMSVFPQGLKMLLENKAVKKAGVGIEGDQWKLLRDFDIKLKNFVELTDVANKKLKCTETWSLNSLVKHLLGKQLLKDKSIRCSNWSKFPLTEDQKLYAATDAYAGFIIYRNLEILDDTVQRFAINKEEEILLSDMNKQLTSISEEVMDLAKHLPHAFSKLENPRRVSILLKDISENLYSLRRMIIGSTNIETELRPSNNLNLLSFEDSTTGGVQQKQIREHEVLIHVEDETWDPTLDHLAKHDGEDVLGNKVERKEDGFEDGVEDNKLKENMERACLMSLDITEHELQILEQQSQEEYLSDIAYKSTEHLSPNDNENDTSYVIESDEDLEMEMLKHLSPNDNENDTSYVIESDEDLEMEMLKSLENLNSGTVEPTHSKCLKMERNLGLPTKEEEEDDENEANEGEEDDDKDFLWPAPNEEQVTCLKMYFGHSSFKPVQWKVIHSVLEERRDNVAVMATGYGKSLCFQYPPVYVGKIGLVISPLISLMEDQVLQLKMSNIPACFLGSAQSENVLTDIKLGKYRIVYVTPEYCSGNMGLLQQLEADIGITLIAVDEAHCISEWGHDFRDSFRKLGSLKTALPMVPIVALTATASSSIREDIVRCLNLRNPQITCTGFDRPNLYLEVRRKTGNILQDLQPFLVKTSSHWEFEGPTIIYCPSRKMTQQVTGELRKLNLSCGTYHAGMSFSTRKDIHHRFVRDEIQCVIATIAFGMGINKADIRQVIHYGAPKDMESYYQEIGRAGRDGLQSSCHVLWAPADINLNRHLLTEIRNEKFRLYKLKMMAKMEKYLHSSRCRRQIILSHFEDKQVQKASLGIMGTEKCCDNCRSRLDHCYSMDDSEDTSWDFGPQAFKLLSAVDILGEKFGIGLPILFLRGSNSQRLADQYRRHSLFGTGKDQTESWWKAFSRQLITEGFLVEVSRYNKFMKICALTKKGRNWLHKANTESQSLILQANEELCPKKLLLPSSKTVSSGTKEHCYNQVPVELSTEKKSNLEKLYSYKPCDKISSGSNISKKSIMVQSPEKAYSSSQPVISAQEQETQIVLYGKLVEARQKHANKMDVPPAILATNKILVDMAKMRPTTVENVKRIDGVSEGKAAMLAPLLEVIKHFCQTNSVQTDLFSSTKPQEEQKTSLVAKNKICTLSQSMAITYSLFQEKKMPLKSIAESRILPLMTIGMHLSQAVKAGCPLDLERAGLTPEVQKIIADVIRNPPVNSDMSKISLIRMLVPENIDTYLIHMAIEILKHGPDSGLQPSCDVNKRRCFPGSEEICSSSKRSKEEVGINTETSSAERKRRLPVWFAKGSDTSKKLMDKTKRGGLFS

Broadly, the stoichiometry N is the number of molecules, sites or subunits per partner or assembly. Turning to “exonuclease domain from the DNA repair protein WRN (domain or fragment)”, the stoichiometry N was 2.

Values taken from publication PMC6126186.
